Numbering of substitutions follows the chain as printed. Numbers in names are those of the source. Blank lines part the entries; values can stand above or below the binder they belong to.
Legend:
[1] = molecular target: T1, wild type human PD-L1-Fc protein (SEQ ID NO: 107) (human); experiment: ELISA on hPD-L1-Fc captured from 293T supernatant, 0.5 ug/ml antibody
T1 construct: Extracellular human PD-L1 (amino acid 19-238) with Fc fragment of human IgG1, expressed in 293T cells and used as culture supernatant; also called WT PD-L1; wild-type PD-L1
T1 sequence (chain, as listed by the source limits assumed): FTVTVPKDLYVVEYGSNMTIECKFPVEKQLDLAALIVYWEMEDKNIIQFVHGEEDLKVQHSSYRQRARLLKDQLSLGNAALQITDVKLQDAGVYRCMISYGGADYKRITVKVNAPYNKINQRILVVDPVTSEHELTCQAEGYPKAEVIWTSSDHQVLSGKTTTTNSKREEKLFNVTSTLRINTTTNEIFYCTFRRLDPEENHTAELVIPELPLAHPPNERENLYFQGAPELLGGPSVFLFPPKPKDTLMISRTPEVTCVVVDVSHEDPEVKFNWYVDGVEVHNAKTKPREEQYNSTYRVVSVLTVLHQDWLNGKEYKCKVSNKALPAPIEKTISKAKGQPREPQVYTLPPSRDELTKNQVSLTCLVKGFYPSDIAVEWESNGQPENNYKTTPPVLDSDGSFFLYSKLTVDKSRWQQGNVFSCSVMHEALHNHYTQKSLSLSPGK

[2] = molecular target: T2, Human PD-L1/CD274 with C-Fc Tag (hPD-L1-Fc) (human, UniProt Q9NZQ7 19-238); experiment: blocking ELISA on coated hPD-L1-Fc; blocked ligand: biotinylated hPD-1-Fc-N297A
T2 construct: range 19-238; ACRO Biosystem PD1-H5258, made in HEK293; also called human PD-L1-Fc; not shown: Fc fragment of human IgG1 at C-terminus
T2 sequence (Q9NZQ7 19-238 limits assumed): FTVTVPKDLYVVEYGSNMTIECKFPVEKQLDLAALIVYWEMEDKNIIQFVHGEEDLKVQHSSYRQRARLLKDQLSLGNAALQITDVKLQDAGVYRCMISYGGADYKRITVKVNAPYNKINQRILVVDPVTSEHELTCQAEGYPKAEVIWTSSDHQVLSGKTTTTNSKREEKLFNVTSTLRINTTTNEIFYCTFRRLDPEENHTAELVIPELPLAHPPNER
Description: High-binding clear polystyrene 96 well plates (Nunc) were coated with 100 μl/well of coating solution consisting of 0.5 μg/ml hPD-L1-Fc overnight at 4° C. Then washed once on an automatic plate washer using washing buffer PBS+0.1% Tween 20 (Sigma). 200 μl of blocking buffer (PBS+1% BSA+1% normal goat serum+0.05% Tween-20) was added to each well and incubated for 2 hours at room temperature. Then add serial diluted antibodies (from 10 μg/ml to 0.0006 μg/ml) with dilution buffer (PBS+1% BSA+1% normal goat serum+0.01% Tween-20) and incubate for 1 hour at RT. The plates were then washed 3 times using the method described above. […] After the plates were washed 3 times, 100 μl/well of a solution of HRP conjugated Neutravidin antibody (Pierce) diluted in dilution buffer was then added to each well of the plate. After that the ELISA plates were allowed to incubate for 60 min at RT then plates were washed 3 times with 250 μl/well washing buffer. Finally, 100 μl/well of TMB was added to each well and reaction was terminated using 0.64M H₂SO₄. The plates were read on a Thermo Multiscan FC at 450 nM (see FIG. 4A).

[3] = molecular target: T3, Recombinant Mouse PD-L1/CD274 Protein (mPD-L1-his) (mouse, UniProt Q9EP73 19-238); experiment: ELISA, 20 ug/ml antibody on coated mouse PD-L1 (his-tagged per text, mPD-L1-Fc per sheet title)
T3 construct: range 19-238; ACRO Biosystem PD1-M5220; also called mouse PD-L1-his
T3 sequence (Q9EP73 other isoform, or with tags, fused parts or gaps limits assumed): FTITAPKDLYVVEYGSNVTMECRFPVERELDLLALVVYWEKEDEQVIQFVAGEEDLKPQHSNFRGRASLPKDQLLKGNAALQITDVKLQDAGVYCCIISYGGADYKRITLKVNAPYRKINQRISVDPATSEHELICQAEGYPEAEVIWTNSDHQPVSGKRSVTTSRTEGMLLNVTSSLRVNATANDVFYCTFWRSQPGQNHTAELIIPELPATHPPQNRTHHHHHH
Procedure, shortened: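 Wells coated overnight at 4 °C with 1 μg/ml mouse PD-L1-his, blocked 2 h with BSA/goat serum buffer; purified hybridoma mouse antibodies at 20 μg/ml bound 1 h at RT. Detection by HRP goat anti-mouse Fc (60 min, RT), TMB, acid stop, absorbance at 450 nm.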

[4] = molecular target: T4, Recombinant Human PD-L1/CD274 Protein (hPD-L1-his) (human, UniProt Q9NZQ7 19-238); experiment: ELISA on coated hPD-L1-his
T4 construct: range 19-238; ACRO Biosystem PD1-H5229, made in HEK293; also called human PD-L1-his; hPD-L-his
T4 sequence (Q9NZQ7 other isoform, or with tags, fused parts or gaps limits assumed): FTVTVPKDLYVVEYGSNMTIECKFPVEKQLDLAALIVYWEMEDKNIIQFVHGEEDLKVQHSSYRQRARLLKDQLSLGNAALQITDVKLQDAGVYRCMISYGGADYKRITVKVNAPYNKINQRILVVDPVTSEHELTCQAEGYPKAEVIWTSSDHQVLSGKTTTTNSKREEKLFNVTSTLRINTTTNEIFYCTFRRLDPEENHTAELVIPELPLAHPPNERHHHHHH

[5] = molecular target: T4, Recombinant Human PD-L1/CD274 Protein …; experiment: ELISA, coated hPD-L1-his, acidic wash and incubation after binding at pH7.4
Description: (§1) The pH-dependent binding affinity was further measured at various pH values, such as pH4, pH4.5, pH5.0, pH5.5, pH6.0, pH7.4. The measurement by ELISA was conducted similarly to the method described above. High-binding clear polystyrene 96 well plates were coated with 100 μl/well of a 0.5 μg/ml hPD-L1-his in high pH coating buffer and incubated overnight at 4° C. Then the coated plates were washed 3 times with shaking for 10s on an automatic plate washer with PBS+0.1% Tween 20 (Amresco). Then 200 μl of blocking buffer (1% BSA (Solarbio)+1% normal goat serum (Solarbio)+0.05% Tween 20 (Amresco)) was added to each well and the plates were then incubated for 2 hours at room temperature and washed 3 times as above. […] The plates were then washed once with 250 μl/well washing buffer at pH7.4, pH6.0, pH5.5, pH5.0, pH4.5 or pH4.0 and then 100 μl/well pH7.4 or pH5.5 washing buffer was added and the incubation was continued for 2 hours at RT with shaking. Afterwards, the plates was washed 3 times washing buffer at pH7.4 and 100 μl/well of a solution of HRP conjugated goat anti-hIgG HRP antibody (1:20000, Abcam) in pH7.4 dilution buffer was then added to each well of the plate. After that the plates were allowed to incubate for 60 min at room temperature followed by washing 3 times with 250 μl/well pH7.4 washing buffer. Finally, 100 μl/well of TMB was added to each well for 15 min and the reaction was terminated using 50 μl/well of 0.16M/L sulfuric acid. The plates were read on a Thermo Multiscan FC at 450 nm (see FIG. 23A-23F). The measurements were performed in triplicate.

[6] = molecular target: hPD-L1 (antigen of the Biacore assay) (human, UniProt Q9NZQ7 19-238, limits assumed); experiment: SPR (Biacore), antibody captured on anti-human Fc, antigen in flow
hPD-L1 (antigen of the Biacore assay), sequence (Q9NZQ7 19-238 limits assumed): as the sequence (Q9NZQ7 19-238 limits assumed) above
Procedure, shortened: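 Antibody captured to 200–300 RU on an anti-human Fc CM5 surface, with an uncaptured flow cell as reference; antigen injected at varying concentrations, 180 s association, in HBS-EP pH 7.4. Regeneration with glycine pH 1.5 for 120 s; reference-subtracted signals evaluated.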

[7] = molecular target: T2, Human PD-L1/CD274 with C-Fc Tag …; experiment: blocking ELISA on coated hPD-L1-Fc; blocked ligand: biotinylated hPD-1-N297A
[8] = molecular target: T5, human PD-L1 expressed on cells (human, UniProt Q9NZQ7 19-290); experiment: flow cytometry (relative mean fluorescence) on human peripheral blood cells activated 3 days with anti-CD3 and anti-CD28; detection with anti-human IgG-APC
T5 construct: whole, on cells; also called hPD-L1 expressed on HCC827; hPD-L1 on MC38/hPD-L1 cells
T5 sequence (Q9NZQ7 19-290): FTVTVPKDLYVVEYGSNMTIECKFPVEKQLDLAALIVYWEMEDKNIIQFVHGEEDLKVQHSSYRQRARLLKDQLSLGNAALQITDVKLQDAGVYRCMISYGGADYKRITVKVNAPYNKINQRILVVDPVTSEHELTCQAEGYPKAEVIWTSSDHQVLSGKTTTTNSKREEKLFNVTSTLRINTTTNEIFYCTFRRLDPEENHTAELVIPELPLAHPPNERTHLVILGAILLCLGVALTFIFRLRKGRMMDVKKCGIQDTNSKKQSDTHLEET

[9] = molecular target: T5, human PD-L1 expressed on cells; experiment: blocking FACS on HCC827 cells; blocked ligand: biotinylated hPD-1-N297A
Description: Log phase IFN-γ stimulated (500U/ml for 2 days) HCC827 cells were collected and resuspended in blocking buffer (5% BSA+PBS). 2×10\hat{ }5 cells were added to each tube and then washed once with PBS (1500 rpm, 5 mins, RT). […] After washing for three times with PBS, 100 μl/tube streptavidin-PE 1:200 in blocking buffer was added to each tube. The cells were incubated at 4° C. for 1 hr and then washed twice with PBS, followed by resuspending cells in 150 μl PBS for each sample. The cells were then transferred into FACS tube and the binding of the antibodies to the cells were detected with flow cytometry (ACEA Bioscience Novocyte) (see FIGS. 20A and 20B).

[10] = molecular target: T1, wild type human PD-L1-Fc protein (SEQ …); experiment: ELISA on captured PD-L1-Fc, as in Example 18A
[11] = molecular target: T6, human PD-L1-Fc mutant E58A (human); experiment: ELISA on captured PD-L1-Fc, as in Example 18A
T6 construct: Position 58 counts on native human PD-L1 (NP_054862.1); also called E58A mutant
T6 sequence (chain, as listed by the source E58A E58A limits assumed): as the sequence (chain, as listed by the source limits assumed) above, with E40A counted along it

[12] = molecular target: T4, Recombinant Human PD-L1/CD274 Protein …; experiment: ELISA on coated hPD-L1-his; bound at pH7.4, then 2 h at pH7.4
Description: as §1

[13] = molecular target: T4, Recombinant Human PD-L1/CD274 Protein …; experiment: ELISA on coated hPD-L1-his; bound at pH7.4, then 2 h at pH5.5
Description: as §1, with “Finally, 100 μl/well of TMB was added to each well for 15 min and the reaction was terminated using 50 μl/well of 0.16M/L sulfuric acid.” left out, “The measurements were performed in triplicate.” left out

[14] = molecular target: T4, Recombinant Human PD-L1/CD274 Protein …; experiment: as above; remark: listed apart in the source
[15] = molecular target: T4, Recombinant Human PD-L1/CD274 Protein …; experiment: ELISA on coated hPD-L1-his; bound at pH7.4, then 2 h at pH7.4; remark: listed apart in the source

binding result [1]: binds | IC50 (read off the curve) [2]: ~0.2 µg/mL | binding result [3]: no binding (tested: 20 ug/ml)
B1: 21F11 (antibody, V domains shown)
VH: QVQLQQPGAELVKPGASVKLSCKASGYTFTSNWMHWVKQRPGQGLEWIGMMHPNSGSINYNEKFKNKATLTADKSSSTAYMQLSSLTSEDSAVYYCARSYYGSSPYYFDYWGQGTTLTVSS
VL: DIQMTQTTSSLSASLGDRVTISCRASQDISNYLNWYQQKPDGTVKLLIYYTSRLHSGVPSRFSGSGSGTDFSLTISNLEEEDIATYFCQQGDTLPWTFGGGTKLEIK
notes: Mouse monoclonal from hybridoma; also called mouse monoclonal antibody 21F11

EC50 (read off the curve) [4]: ~0.001 µg/mL | binding signal at pH5 as percent of the signal at pH7.4 [5]: < 50% | binding signal at pH5.5 as percent of the signal at pH7.4 [5]: < 75% | Kd [6]: 65.4 nM | koff [6]: 0.0304 s⁻¹ | kon [6]: 465000 M⁻¹ s⁻¹ | IC50 (read off the curve) [7]: ~0.03 µg/mL | EC50 [8]: 0.0305 µg/mL | IC50 (read off the curve) [9]: ~0.03 µg/mL | Mean OD450 [10]: 1.25 OD450 | OD450 nM of sample-1 [10]: 1.18 OD450 | OD450 nM of sample-2 [10]: 1.33 OD450 | % of binding of Ab to E58A mutant vs. that to WT PD-L1 [11]: 9.2% | Mean OD450 [11]: 0.116 OD450 | OD450 nM of sample-1 [11]: 0.129 OD450 | OD450 nM of sample-2 [11]: 0.103 OD450 | EC50 (read off the curve) [12]: ~0.007 µg/mL | EC50 (read off the curve) [13]: ~0.01 µg/mL
B2: 23F11-H4L4 (antibody, V domains shown)
VH: QVQLVQSGAEVKKPGASVKLSCKASGYIFTTYWMHWVKQRPGQGLEWIGMIQPNSGGTKYNEKFKKKATLTVDKSISTAYMELSRLTSDDTAVYYCARGAGTVDYFDYWGQGSTLTVSS
VL: DIVLTQSPASLAVSVGQRATITCRASESVDIYGNSFMHWYQQKPGQPPKLLIYRASNLESGIPARFSGSGSRTDFTLTINPVEANDTATYYCQQSTEDPYTFGGGTKLEIK
notes: Human IgG1 constant region with N297A; biotinylated in the alanine-scan ELISA; also called 23F11-H4L4-bio; humanized 23F11

EC50 (read off the curve) [14]: ~0.009 µg/mL | EC50 (read off the curve) [15]: ~0.008 µg/mL | IC50 (read off the curve) [9]: ~0.06 µg/mL
B3: 23F11-H4L4 (produced in CHO cells) (antibody, V domains shown)
VH: B2 VH
VL: B2 VL with N85Q
notes: also called 23F11-H4L4 (CHO cell derived); 23F11 H4L4 CHO

— patent US20210009693A1 (MABSPACE BIOSCIENCES SUZHOU, published 2021)
